Laboratory results reported in patent US20230167455.

T1: EB2 protein (endogenous target of CDKL5 in mouse brain), Q8R001
T1 chain: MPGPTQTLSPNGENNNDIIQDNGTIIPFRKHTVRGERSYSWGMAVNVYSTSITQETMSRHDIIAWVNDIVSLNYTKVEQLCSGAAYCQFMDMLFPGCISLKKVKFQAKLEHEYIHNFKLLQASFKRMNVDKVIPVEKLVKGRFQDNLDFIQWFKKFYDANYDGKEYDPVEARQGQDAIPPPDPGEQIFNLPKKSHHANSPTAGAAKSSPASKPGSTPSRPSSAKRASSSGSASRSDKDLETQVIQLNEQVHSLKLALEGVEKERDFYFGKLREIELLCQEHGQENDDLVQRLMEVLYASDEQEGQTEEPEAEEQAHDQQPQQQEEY

B1: human CDKL5, isoform 4 (protein)
chain: MKIPNIGNVMNKFEILGVVGEGAYGVVLKCRHKETHEIVAIKKFKDSEENEEVKETTLRELKMLRTLKQENIVELKEAFRRRGKLYLVFEYVEKNMLELLEEMPNGVPPEKVKSYIYQLIKAIHWCHKNDIVHRDIKPENLLISHNDVLKLCDFGFARNLSEGNNANYTEYVATRWYRSPELLLGAPYGKSVDMWSVGCILGELSDGQPLFPGESEIDQLFTIQKVLGPLPSEQMKLFYSNPRFHGLRFPAVNHPQSLERRYLGILNSVLLDLMKNLLKLDPADRYLTEQCLNHPTFQTQRLLDRSPSRNQAGKSTALQSHHRSNSKDIQNLSVGLPRADEGLPANESFLNGNLAGASLSPLHTKTYQASSQPGSTSKDLTNNNIPHLLSPKEAKSKTEFDFNIDPKPSEGPGTKYLKSNSRSQQNRHSFMESSQSKAGTLQPNEKQSRHSYIDTIPQSSRSPSYRTKAKSHGALSDSKSVSNLSEARAQIAEPSTSRYFPSSCLDLNSPTSPTPTRHSDTRTLLSPSGRNNRNEGTLDSRRTTTRHSKTMEELKLPEHMDSSHSHSLSAPHESFSYGLGYTSPFSSQQRPHRHSMYVTRDKVRAKGLDGSLSIGQGMAARANSLQLLSPQPGEQLPPEMTVARSSVKETSREGTSSFHTRQKSEGGVYHDPHSDDGTAPKENRHLYNDPVPRRVGSFYRVPSPRPDNSFHENNVSTRVSSLPSESSSGTNHSKRQPAFDPWKSPENISHSEQLKEKEKQGFFRSMKKKKKKSQTTDSTNGENPSIKKSLFPLFNSKNHLKHSSSLKKLPVVTPPMVPNSDSPDLLTLQKSIHSASTPSSRPKEWRPEKISDLQTQSQPLKSLRKLLHLSSASNHPASSDPRFQPLTAQQTKNSFSEIRIHPLSQASGGSSNIRQEPAPKGRPALQLPGQMDPGWHVSSVTRSATEGPSYSEQLGAKSGPNGHPYNRTNRSRMPNLNDLKETAL
B2: human CDKL5, isoform 1 (protein)
chain: MKIPNIGNVMNKFEILGVVGEGAYGVVLKCRHKETHEIVAIKKFKDSEENEEVKETTLRELKMLRTLKQENIVELKEAFRRRGKLYLVFEYVEKNMLELLEEMPNGVPPEKVKSYIYQLIKAIHWCHKNDIVHRDIKPENLLISHNDVLKLCDFGFARNLSEGNNANYTEYVATRWYRSPELLLGAPYGKSVDMWSVGCILGELSDGQPLFPGESEIDQLFTIQKVLGPLPSEQMKLFYSNPRFHGLRFPAVNHPQSLERRYLGILNSVLLDLMKNLLKLDPADRYLTEQCLNHPTFQTQRLLDRSPSRSAKRKPYHVESSTLSNRNQAGKSTALQSHHRSNSKDIQNLSVGLPRADEGLPANESFLNGNLAGASLSPLHTKTYQASSQPGSTSKDLTNNNIPHLLSPKEAKSKTEFDFNIDPKPSEGPGTKYLKSNSRSQQNRHSFMESSQSKAGTLQPNEKQSRHSYIDTIPQSSRSPSYRTKAKSHGALSDSKSVSNLSEARAQIAEPSTSRYFPSSCLDLNSPTSPTPTRHSDTRTLLSPSGRNNRNEGTLDSRRTTTRHSKTMEELKLPEHMDSSHSHSLSAPHESFSYGLGYTSPFSSQQRPHRHSMYVTRDKVRAKGLDGSLSIGQGMAARANSLQLLSPQPGEQLPPEMTVARSSVKETSREGTSSFHTRQKSEGGVYHDPHSDDGTAPKENRHLYNDPVPRRVGSFYRVPSPRPDNSFHENNVSTRVSSLPSESSSGTNHSKRQPAFDPWKSPENISHSEQLKEKEKQGFFRSMKKKKKKSQTVPNSDSPDLLTLQKSIHSASTPSSRPKEWRPEKISDLQTQSQPLKSLRKLLHLSSASNHPASSDPRFQPLTAQQTKNSFSEIRIHPLSQASGGSSNIRQEPAPKGRPALQLPGQMDPGWHVSSVTRSATEGPSYSEQLGAKSGPNGHPYNRTNRSRMPNLNDLKETAL
B3: human CDKL5, isoform 3 (protein)
chain: MKIPNIGNVMNKFEILGVVGEGAYGVVLKCRHKETHEIVAIKKFKDSEENEEVKETTLRELKMLRTLKQENIVELKEAFRRRGKLYLVFEYVEKNMLELLEEMPNGVPPEKVKSYIYQLIKAIHWCHKNDIVHRDIKPENLLISHNDVLKLCDFGFARNLSEGNNANYTEYVATRWYRSPELLLGAPYGKSVDMWSVGCILGELSDGQPLFPGESEIDQLFTIQKVLGPLPSEQMKLFYSNPRFHGLRFPAVNHPQSLERRYLGILNSVLLDLMKNLLKLDPADRYLTEQCLNHPTFQTQRLLDRSPSRNQAGKSTALQSHHRSNSKDIQNLSVGLPRADEGLPANESFLNGNLAGASLSPLHTKTYQASSQPGSTSKDLTNNNIPHLLSPKEAKSKTEFDFNIDPKPSEGPGTKYLKSNSRSQQNRHSFMESSQSKAGTLQPNEKQSRHSYIDTIPQSSRSPSYRTKAKSHGALSDSKSVSNLSEARAQIAEPSTSRYFPSSCLDLNSPTSPTPTRHSDTRTLLSPSGRNNRNEGTLDSRRTTTRHSKTMEELKLPEHMDSSHSHSLSAPHESFSYGLGYTSPFSSQQRPHRHSMYVTRDKVRAKGLDGSLSIGQGMAARANSLQLLSPQPGEQLPPEMTVARSSVKETSREGTSSFHTRQKSEGGVYHDPHSDDGTAPKENRHLYNDPVPRRVGSFYRVPSPRPDNSFHENNVSTRVSSLPSESSSGTNHSKRQPAFDPWKSPENISHSEQLKEKEKQGFFRSMKKKKKKSQTVPNSDSPDLLTLQKSIHSASTPSSRPKEWRPEKISDLQTQSQPLKSLRKLLHLSSASNHPASSDPRFQPLTAQQTKNSFSEIRIHPLSQASGGSSNIRQEPAPKGRPALQLPGQMDPGWHVSSVTRSATEGPSYSEQLGAKSGPNGHPYNRTNRSRMPNLNDLKETAL
B4: human CDKL5, isoform 2 (protein)
chain: MKIPNIGNVMNKFEILGVVGEGAYGVVLKCRHKETHEIVAIKKFKDSEENEEVKETTLRELKMLRTLKQENIVELKEAFRRRGKLYLVFEYVEKNMLELLEEMPNGVPPEKVKSYIYQLIKAIHWCHKNDIVHRDIKPENLLISHNDVLKLCDFGFARNLSEGNNANYTEYVATRWYRSPELLLGAPYGKSVDMWSVGCILGELSDGQPLFPGESEIDQLFTIQKVLGPLPSEQMKLFYSNPRFHGLRFPAVNHPQSLERRYLGILNSVLLDLMKNLLKLDPADRYLTEQCLNHPTFQTQRLLDRSPSRSAKRKPYHVESSTLSNRNQAGKSTALQSHHRSNSKDIQNLSVGLPRADEGLPANESFLNGNLAGASLSPLHTKTYQASSQPGSTSKDLTNNNIPHLLSPKEAKSKTEFDFNIDPKPSEGPGTKYLKSNSRSQQNRHSFMESSQSKAGTLQPNEKQSRHSYIDTIPQSSRSPSYRTKAKSHGALSDSKSVSNLSEARAQIAEPSTSRYFPSSCLDLNSPTSPTPTRHSDTRTLLSPSGRNNRNEGTLDSRRTTTRHSKTMEELKLPEHMDSSHSHSLSAPHESFSYGLGYTSPFSSQQRPHRHSMYVTRDKVRAKGLDGSLSIGQGMAARANSLQLLSPQPGEQLPPEMTVARSSVKETSREGTSSFHTRQKSEGGVYHDPHSDDGTAPKENRHLYNDPVPRRVGSFYRVPSPRPDNSFHENNVSTRVSSLPSESSSGTNHSKRQPAFDPWKSPENISHSEQLKEKEKQGFFRSMKKKKKKSQTTDSTNGENPSIKKSLFPLFNSKNHLKHSSSLKKLPVVTPPMVPNSDSPDLLTLQKSIHSASTPSSRPKEWRPEKISDLQTQSQPLKSLRKLLHLSSASNHPASSDPRFQPLTAQQTKNSFSEIRIHPLSQASGGSSNIRQEPAPKGRPALQLPGQMDPGWHVSSVTRSATEGPSYSEQLGAKSGPNGHPYNRTNRSRMPNLNDLKETAL

Biological target: T1, EB2 protein (endogenous target of CDKL5 …)

Protein | EB2 phosphorylation levels (Western blot, Cdkl5-ko mouse brain) | ability to phosphorylate EB2 (mouse brain) | EB2 phosphorylation (Cdkl5(D471fs) mouse brain, 3 months after AAV) | EB2 phosphorylation (Cdkl5(R59X) mouse brain, 3 months after AAV) | kinase activity, blotting for phosphorylated EB2 (Cdkl5-ko mouse brain, 3 months after AAV) | phosphorylation of EB2 (Western blot of mouse brain, pS222EB2)
B1 | by isoforms three or 4 slightly lower compared to isoform 1 | All tested plasmids expressed well in mouse brain, showing minor differences in ability to phosphorylate EB2 (measurement of CDKL5 kinase activity) | – | – | – | –
B2 | – | All tested plasmids expressed well in mouse brain, showing minor differences in ability to phosphorylate EB2 (measurement of CDKL5 kinase activity) | showed robust hCDKL5 protein expression and EB2 phosphorylation 3 months later | showed robust hCDKL5 protein expression and EB2 phosphorylation 3 months later | human CDKL5 showed robust kinase activity when blotting for phosphorylated EB2 protein | CDKL5 was fully active, as determined by its ability to phosphorylate its endogenous target EB2 protein
B3 | by isoforms three or 4 slightly lower compared to isoform 1 | All tested plasmids expressed well in mouse brain, showing minor differences in ability to phosphorylate EB2 (measurement of CDKL5 kinase activity) | – | – | – | –
B4 | EB2 phosphorylation levels generated by isoform 2 were slightly higher | All tested plasmids expressed well in mouse brain, showing minor differences in ability to phosphorylate EB2 (measurement of CDKL5 kinase activity) | – | – | – | –
